Data as given in patent US20190119357A1, “MESSENGER RIBONUCLEIC ACIDS FOR THE PRODUCTION OF INTRACELLULAR BINDING POLYPEPTIDES AND METHODS OF USE THEREOF” (ModernaTX, Inc., priority 2015, published 2019).
“Also recorded” adds a separate entry of the source.

Assays:
systemic TF1a tumors = assay: Repeat study in the TF1a-SCID model with survival endpoint; format: in vivo
Description: In this repeat study, tumor growth inhibition (TGI) was the primary efficacy over the first 4 weeks of the study and survival was the primary efficacy endpoint over the second 4 weeks of the study. […] Animals were dosed as follows: PBS (0.1 ml/20 g one time per week) IV (Group 1), cytarabine IV at 2 mg/kg three times per week (Group 2), LNPs containing mRNA encoding Green Fluorescent Protein (GFP) at 3 mg/kg one time per week (Group 3) and LNPs containing mRNA encoding SQT-PUMA-BH3 (comprising a miR122 binding site) at 3 mg/kg one time per week (Group 4).
Mice were dosed intravenously for four weeks, with animals in Group 4 being dosed for eight weeks (i.e., weekly dosing up to eight weeks).
In this repeat study, tumor growth inhibition (TGI) was again used as a primary endpoint to quantify efficacy with BLI being used as a surrogate for tumor burden. Bioluminescence Imaging (BLI) was measured weekly out to at least Day 61 post disease induction. The mean BLI results at Day 33 and Day 61 are shown in FIGS. 23A and 23B, respectively.
The survival of the mice over eight weeks was monitored and the percent survival of the mice in the study was assessed.

MCL-1 = target: T1, MCL-1 (Homo sapiens, UniProt Q07820); assay: Co-immunoprecipitation in lysates of transfected HeLa cells; format: binding; conditions: lysates of HeLa cells transfected with mRNAs
T1 construct: performed in lysates of HeLa cells transfected with mRNAs encoding SQT-BH3 constructs; endogenous in cells; host or cells: HeLa

Hep3B cells = assay: Cell death by YOYO-3 with MC3-formulated LNPs; format: cell-based; conditions: relatively high concentration
Description: The efficacy of mRNAs encoding SQT-BH3 constructs in inducing cell death was tested both in hepatocellular carcinoma cell lines as well as in primary hepatocytes using lipid nanoparticle (LNP)-formulated constructs. Hep3B cells were treated with varying doses (0.78 ng to 50 ng) of MC3-formulated LNPs in the presence of YOYO-3 (Life Technologies), a DNA dye that is taken up preferentially by dead cells that is used to measure the extent of cell death. MC3 lipid nanoparticles included MC3 50%, DSPC 10%, Cholesterol 38.5%, PEG-DMG 1.5%, N:P ˜5.5.

systemic HEL xenografts = assay: Systemic HEL xenografts in SCID mice (AML model); format: in vivo
Description: (§1) LNPs comprising the cationic lipid MC3 were tested using the optimal percentage of PEG-lipid and optimal PEG length (1.5% DSPE, C18, as described in Example 8), for in vivo targeted delivery of SQT-PUMA-BH3 in two different in vivo models of acute myeloid leukemia (AML). One model used systemic TF1a xenografts in SCID mice. The other model used systemic HEL xenografts in SCID mice. Each of these models uses a human erythroleukemia cell line. The HEL erythroleukia cell line is described in, for example, Martin, P. and Papayannopoulou, T. (1982) Science 216:1233-1235. The TF1 erythroleukmia cell line (from which TF1a is derived) is described in, for example, Kitamura, T. et al. (1989) J. Cell. Physiol. 140:323-334. Unless otherwise noted, mRNAs were fully modified with N1-methlypseudouridine to avoid stimulating an innate immune response to said mRNAs when administered in vivo.
In a second set of experiments, HEL cells stably expressing luciferase (HEL-luc cells) were implanted systemically in SCID mice. Tumor growth was measured by whole body bioluminescent imaging (BLI) in anaesthetized animals following SC injection of 150 mg/kg D-Luciferin, in an imaging chamber (Spectrum CT). […] Mice were dosed intravenously at days 28 and 36 and tumor burden was assessed by BLI on days 33, 36, 40 and 43.

systemic TF1a xenografts = assay: Systemic TF1a xenografts in SCID mice (AML model); format: in vivo
Description: as §1
In a first set of experiments, TF1a cells stably expressing luciferase (TF1α-luc cells) were implanted systemically in SCID mice. Tumor growth was measured by whole body bioluminescent imaging (BLI) in anaesthetized animals following SC injection of 150 mg/kg D-Luciferin, in an imaging chamber (Spectrum CT). Animals showing an increasing tumor burden at day 12 post-cell implantation were recruited for treatment. Animals were randomized into four study groups, as follows: PBS IV (Group 1), cytarabine at 2 mg/kg three times per week (Group 2), LNPs containing mRNA encoding Green Fluorescent Protein (GFP) at 3 mg/kg one time per week (Group 3) and LNPs containing mRNA encoding SQT-PUMA-BH3 (comprising a miR122 binding site) at 3 mg/kg one time per week. Mice were dosed intravenously for four weeks.

[1] = TF1a-SCID mice, 3 mg/kg one time per week

T1 sequence (Q07820 whole entry): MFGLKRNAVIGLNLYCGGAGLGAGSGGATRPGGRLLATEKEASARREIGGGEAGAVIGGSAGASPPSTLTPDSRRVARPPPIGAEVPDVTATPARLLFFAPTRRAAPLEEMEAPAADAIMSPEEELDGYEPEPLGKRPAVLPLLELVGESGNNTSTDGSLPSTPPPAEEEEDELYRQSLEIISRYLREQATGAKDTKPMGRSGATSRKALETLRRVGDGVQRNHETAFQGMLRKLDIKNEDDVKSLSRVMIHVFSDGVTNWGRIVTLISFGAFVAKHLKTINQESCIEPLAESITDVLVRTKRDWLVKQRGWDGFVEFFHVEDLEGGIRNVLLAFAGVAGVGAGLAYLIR

B1: SQT-PUMA-BH3: mRNA (SEQ ID NO: 49, FLAG) encoding SQT scaffold with PUMA BH3 domain in N-terminus, fully modified with 1-methyl-pseudouridine (nucleic acid)
chain: ATGATCCCAAGAGAAGAACAGTGGGCACGCGAAATTGGAGCTCAACTCAGACGGATGGCCGACGACCTGAACGCCCAGTACGAGCGGCGGGGACTCTCAGAAGCGAAGCCTGCCACCCCCGAAATCCAGGAAATCGTCGACAAGGTCAAGCCGCAGCTTGAGGAAAAGACCAACGAGACTTACGGAAAACTGGAGGCCGTGCAGTATAAGACCCAAGTGTTGGCCTCCACCAACTACTACATTAAGGTCCGCGCCGGCGATAACAAGTACATGCACCTGAAGGTGTTCAATGGTCCTCCGGGACAGAACGCGGACAGGGTGCTGACTGGCTACCAAGTGGACAAGAACAAGGACGACGAGCTGACGGGCTTCGACTACAAGGATGATGATGACAAA
modifications: FLAG tag, 1-methyl-pseudouridine; Synthetic SQT-PUMA-BH3 mRNA sequence with FLAG epitope tag
With B1 the “percent body weight change / tolerability” value (systemic TF1a tumors) was “did not significantly impact body weight”, the “tumor growth (BLI)” value (systemic TF1a tumors; 3 mg/kg one time per week, 3 mg/kg) was “showed marked tumor growth regression as compared to both PBS and LNP controls; also recorded: most effective treatment for inhibiting tumor growth, showing greater efficacy than the cytarabine SOC control” and the median survival (systemic TF1a tumors; post-implant, 3 mg/kg one time per week) was “median survival had not yet been reached”. For the same molecule, the “co-immunoprecipitation of MCL-1” value (MCL-1) was “able to co-immunoprecipitate”, the “apoptosis and cell death (YOYO-3)” value (Hep3B cells) was “both induced apoptosis and cell death; also recorded: kills Hep3B cells at higher concentrations” and the “efficacy and timing of cell killing, comparison” value (Hep3B cells) was “showed a modest increase in both the efficacy and timing of cell killing compared to SQT-Bim-BH3”. The “tumor growth inhibition (TGI), BLI” value (systemic HEL xenografts; 1.5 mg/kg IV at days 28 and 36, by days 40 and 43) was “exhibited greater tumor growth inhibition (TGI) as compared to the mice treated with the PBS or GFP controls”, the “tumor growth inhibition (TGI), BLI” value (systemic HEL xenografts; 3 mg/kg IV at days 28 and 36, at day 33) was “already exhibited significantly greater tumor growth inhibition than the mice treated with the PBS or GFP controls” and the body weight (systemic TF1a xenografts; [1]) was “did not cause significant body weight changes”. The “tolerability / treatment-related mortality” value (systemic TF1a xenografts; [1]) was “well tolerated, resulting in no treatment-related mortality” and the “systemic tumor growth (BLI)” value (systemic TF1a xenografts; TF1a-SCID, mRNA LNPs 3 mg/kg one time per week, cytarabine 2 mg/kg three times per week, IV, four weeks) was “led to greater tumor growth inhibition than treatment with cytarabine”.
